Measurements reported in US11254722B2, “Recombinant proteins and uses thereof” (ACADEMIA SINICA, priority 2017, dated 2022).
Read-outs that look alike come from different tables or passages of the source. Blank lines part the entries; values can stand above or below the molecule they belong to.

Legend:
[1] = estimated; reference 26; cited from earlier work
IGF-1 = molecular target: T1, IGF-1 (Homo sapiens, UniProt P05019); experiment: Biacore binding to IGF-1; settings: experiment 4-79
T1 construct: purchased R&D Sciences or SinoBiologicals
T1 sequence (P05019 49-118 limits assumed): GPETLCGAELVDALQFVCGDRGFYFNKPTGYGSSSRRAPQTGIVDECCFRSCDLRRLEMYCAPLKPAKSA
Procedure: Biacore binding was performed at David Myszka's laboratory at the University of Utah or at the Genomic Research Center at Academia Sinica. Surfaces of binding protein chimera were made via chemical immobilization on a CM4 chip using standard amine coupling chemistry. […] Excess surface carboxyl activated sites on all four flow cells was blocked using the doubly positively charged species ethylenediamine. Binding experiments (but not immobilizations) in HBS-P (10 mM HEPES pH 7.4, 150 mM NaCl, 0.05% P20), The HBS-P was supplemented with BSA at 0.2 mg/mL, or HBS-P was supplemented with 500 mM NaCl (650 mM NaCl, final concentration). Analytes were also reconstituted in the corresponding buffer. All experiments were performed at 25° C. 1/150 dilutions of phosphoric acid were used to regenerate IGFBP3-Fc surfaces and a sequence of 3 M MgCl2 followed by 5 M GuCl was used to regenerate surfaces immobilized with growth factor. Dissociation constants reported below used immobilized binding protein unless noted. Differences between binding constants may be expected between growth factor immobilization and chimera immobilization.

hep3B cells [2] = experiment: hep3B proliferation assay; assay type: cell-based, human; settings: for EC50: FIG. 11C, read-out: ECK for FBS-induced proliferation; for IC50: Table 10
In short: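 Cells seeded at 1,000 to 6,000 per well in DMEM/F12 with 0.2% BSA and 10 ug/ml transferrin. Inhibitors added 16-20 h after plating; IGF-1 or other growth factors at plating or 16-20 h later. After 3 to 4 days, growth read by Alamar blue fluorescence at 544/590 nm after 4 to 6 h.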

[3] = test system: A549 lung carcinoma cells; experiment: A549 proliferation assay; assay type: cell-based
Procedure: (§1) MCF-7 cells (a breast cancer cell line) were maintained in MEM (GIBCO) plus insulin and NEAA and 10% FBS (Hyclone).
(§2) For the proliferation assay, cells except for HUVEC were seeded at a density of 1,000 to 6,000 in 96 wells in an assay buffer of DMEM/F12 plus 0.2% BSA and 10 ug/ml transferrin. Chemical inhibitors were added after 16-20 hours after plating; IGF-1 or other growth factors or test chimeras in assay buffer were added at the time of plating or 16-20 hours after plating. 5,000 HUVEC ells were plated in poly-L-lysine coated 96 wells in M199 with 1%/FBS and HEPES. After 3 to 4 days of culture, growth was determined by incubating cells with Alamar blue for 4 to 6 hours and then the fluorescence (RFU) at 544/590 nm was read. For long term proliferation assays, cells were plated in the growth media with 5% or 10% FBS at densities of 500 to 10,000 cells per cm^2 growth area and grown for 7 to 21 days. Inhibitors and effectors were added 1-4 days after plating. Cells were exposed to cisplatin or gemcitabine for two days. Medium was renewed twice weekly. At completion, cells were fixed and then stained with Giemsa.
Since the A549 cell line contains a KRAS mutation, it is expected that A549 cells be resistant to TKIs such as AZD9291 and erlotinib. MEK inhibitors such as trametinib were designed to target the RAS/MEK/ERK pathway. […]

[4] = test system: PC-9 non-small cell lung cancer cells; experiment: PC-9 subcutaneous tumors in NSG mice, daily erlotinib; assay type: in vivo; settings: chimera D3 plus erlotinib
Procedure: (§3) 5×10exp6 PC-9 non-small cell lung cancer cells were injected subcutaneously in Nod scid gamma (NSG) mice. […] Erlotinib in 6% captisol was dosed orally daily at 25 mg/kg; IGFBP3Fc (3(del3)3) was dosed intraperitoneally at 25 mg/kg three times per week; control animals were administered vehicle. Dosing was started on day 11; erlotinib and erlotinib plus D3 was discontinued on day 19; D3 injections were discontinued on day 22.

PC-9 tumors = experiment: PC-9 subcutaneous tumors in mice, low dose erlotinib; assay type: in vivo; settings: erlotinib 25 mg/kg 3 times per week; FIG. 27
Procedure: as §3
Subcutaneous PC-9 tumors were generated and measured as above. Chimera D3 was dosed as above; erlotinib was dosed at 25 mg/kg 3 times per week in order to examine the effect of the chimera D3 on the tumor growth with suboptimal erlotinib dosing. The treatment started on day 8 and ended on day 22.

Hep3B cells [5] = experiment: Hep3B subcutaneous tumors in NOD-Scid mice; assay type: in vivo
Procedure: Hep3B cells were infected with GFP-luciferase lentivirus. The cells with highest GFP expression were selected by FACS sort, and the resulting population was expanded. Two million hep3B cells mixed with Matrigel were injected subcutaneously in NOD-Scid mice, and measurable signal was obtained after 7 days. Treatment began at 8 days after injection (day 0). Luciferase was measured as per the standard Xenogen protocol. IGFBP3.Fc D3 (i.e., the 3(del3)3 chimera) at 20 mg/kg was injected twice weekly; saline was injected in the control group. Tumor growth was measured twice weekly by measuring the luminescence. […]

HT29 cells = experiment: HT29 proliferation assay; assay type: cell-based, human
Procedure: as §1, §2
The combination of drug (erlotinib and vemurafenib in hep3b and HT29 cells, respectively) and chimera can be synergistic; so, in addition to enhancing the inhibition, the chimera addition may also lower drug concentration requirements and reduce side effects.

PC-91R = PC-91R gefitinib-resistant cell proliferation; assay type: cell-based; settings: FIG. 24A, FIG. 24B
Procedure: as §2
One mechanism of EGFR TKI resistance is the transition from an epithelial to mesenchymal phenotype (16). […] Consequently, a combination of chimera D3 and TKI may limit the resistance caused by epithelial to mesenchymal transition.

A431 = A431 survival and growth with TKI; assay type: cell-based, human; settings: FIG. 21
Procedure: as §1, §2
(§4) The addition of chimera D3 to gefitinib reduced this number by about 100-fold.

PC-9 cells = experiment: PC-9 proliferation and clonal density assays; assay type: cell-based, human
Procedure: as §1, §2
Proliferation assays at clonal densities allows measurement of these DTPs. PC-9 cells are a human non-small cell lung cancer line with a EGFR deletion with high sensitivity to EGFR TKI's (24).

HUH7 = HUH7 survival and growth with TKI; assay type: cell-based, human; settings: FIG. 21
Procedure: as §1, §2, §4

[6] = test system: H1975-T790M gefitinib-resistant; experiment: H1975 survival and growth with TKI; assay type: cell-based, human; settings: FIG. 21
Procedure: as §1, §2, §4

[7] = number of tumors, increase in the tumor size
[8] = number of tumors, no measurable tumor
[9] = number of tumors, partial regression means a 20% or greater decrease in the tumor size

Kd (IGF-1): 0.363 nM | EC50 (hep3B cells [2]; hep3B): 200 nM
Molecule: IGFBP3: insulin-like growth factor-binding protein-3, wild-type (SEQ ID NO: 1) [reference compound]
serum half-life [1]: 25 min

decrease of the IC50 of gefitinib (PC-9 cells; 200 nM D3Fc, PC-9, four-day assay, FIG. 19A): 70 fold | IC50 (hep3B cells [2]; read-out: IC50, FBS-stimulated proliferation of hep3B cells): 105 nM | IC50 (hep3B cells [2]; read-out: IC50, HGF-stimulated proliferation of hep3B cells): 47 nM | IC50 (hep3B cells [2]; read-out: IC50, IGF1-stimulated proliferation of hep3B cells): 28 nM | IC50 (hep3B cells [2]; read-out: IC50, bFGF-stimulated proliferation of hep3B cells): 69 nM | IC50 (hep3B cells [2]; read-out: IC50, nrg-stimulated proliferation of hep3B cells): 78 nM | EC50 (hep3B cells [2]; hep3B): 85 nM
B1: chimera D3: IGFBP3 with IGFBP3 linker deletion 3-Fc, SEQ ID NO: 12 (protein)
chain: MSEVPVARVWLVLLLLTVQVGVTAGGASSAGLGPVVRCEPCDARALAQCAPPPAVCAELVREPGCGCCLTCALSEGQPCGIYTERCGSGLRCQPSPDEARPLQALLDGRGLCVNASAVSRPAPPAPGNASESEEDRSAGSVESPSVSSTHRVSDPKFHPKGHAKVDYESQSTDTQNFSSESKRETEYGPCRREMEDTLNHLKFLNVLSPRGVHIPNCDKKGFYKKKQCRPSKGRKRGFCWCVDKYGQPLPGYTTKGKEDVHCYSMQSKVECPPCPAPPVAGPSVFLFPPKPKDQLMISRTPEVTCVVVDVSHEDPEVKFNWYVDGVEVHNAKTKPREEQYNSTYRVVSVLTVLHQDWLNGKEYKCKVSNKGLPSSIEKTISKAKGQPREPQVYTLPPSREEMTKNQVSLTCLVKGFYPSDIAVEWESNGQPENNYKTTPPVLDSDGSFFLYSKLTVDKSRWQQGNVFSCSVMHEGLHNHYTQKSLSLSPGK
A549 growth on addition to cisplatin ([3]; FIG. 18B): further inhibited | growth of A549 lung carcinoma cells ([3]; alone, or in combination with the TK (AZD9291, trametinib), FIG. 18A): reduced the growth | tumor growth after erlotinib treatment was stopped on day 19, compared to the erlotinib group ([4]; FIG. 26): delayed tumor growth | tumor volume of treated to control (T/C) ([4]; day 20): 32% | tumor inhibition on addition of chimera D3 to erlotinib (PC-9 tumors): clearly improved the tumor inhibition | hep3B tumor growth compared with control mice (Hep3B cells [5]; 20 mg/kg twice weekly, luminescence, FIG. 25): grew more slowly | T/C (tumor volume treated/control) ratio (Hep3B cells [5]; D3 alone, day 25): 63% | tumor growth inhibition (Hep3B cells [5]; D3 alone, day 25, p value of 0.0025): 37% | Progression, Day 12 (Hep3B cells [5]; [7]): 5 | Progression, Day 22 (Hep3B cells [5]; [7]): 4 | Complete regression, Day 12 (Hep3B cells [5]; [8]): 2 | Complete regression, Day 22 (Hep3B cells [5]; [8]): 3 | Partial regression, Day 12 (Hep3B cells [5]; [9]): 1 | Partial regression, Day 22 (Hep3B cells [5]; [9]): 1 | inhibition with vemurafenib in HT29 cells (HT29 cells; FIG. 17A isobologram, FIG. 17B): synergistic inhibition | cancer cell survival and growth on addition to TKI (HT29 cells; HT29, FIG. 21): further inhibited | sensitivity of gefitinib-resistant PC-91R cells to gefitinib (PC-91R): restored the cancer cells' sensitivity to gefitinib | cancer cell survival and growth on addition to TKI (A431): further inhibited | bFGF and HGF rescue of osimertinib-treated PC-9 cells (PC-9 cells; FIG. 23): inhibited such rescue | clonal density assay with gefitinib (PC-9 cells; PC-9, FIG. 19B): decreased the IC50 and reduced surviving cells | IGF1-induced cell survival under gefitinib (PC-9 cells; PC-9, FIG. 20): dramatically reduced | cell growth with bFGF under gefitinib (PC-9 cells; PC-9, FIG. 20): substantially reduced cell growth | cancer cell survival and growth on addition to TKI (PC-9 cells; PC-9, FIG. 21): further inhibited | reduction of the number of PC-9 cells surviving gefitinib (PC-9 cells; addition of chimera D3 to gefitinib): about 100 fold | cancer cell survival and growth on addition to TKI (HUH7): further inhibited | hep3B proliferation on co-treatment with doxorubicin (hep3B cells [2]; 0.01 uM doxorubicin plus chimera D3): reduced proliferation even further | hep3B proliferation on co-treatment with erlotinib, sorafenib or afatinib (hep3B cells [2]; 2 uM erlotinib, 2 uM sorafenib, or 0.15 uM afatinib, FIG. 16B): further reduced cell proliferation | proliferation of hep3B cells treated with chimera alone vs no inhibitor (hep3B cells [2]; FIG. 16B): reduced significantly | bFGF, IGF1, bFGF/IGF1, HGF and HGF/IGF rescue of erlotinib-treated hep3b cells (hep3B cells [2]; clonal proliferation assay, FIG. 22B): inhibited | inhibition of hep3B cells treated with erlotinib (hep3B cells [2]; combination with erlotinib, FIG. 15, FIG. 16A): synergistically inhibited | cancer cell survival and growth on addition to TKI (hep3B cells [2]; hep3B, FIG. 21): further inhibited | cancer cell survival and growth on addition to TKI [6]: further inhibited
